Test system: Escherichia coli TOP10
Experiment: shrunken log2 fold change of peptide-encoding DNA abundance (4.5 h post-induction vs induction); higher = less antimicrobial activity (less host growth inhibition)
Details: time post-induction: 4.5 h; library: site-saturation at positions 5, 18, 19, 20
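Also: peptides expressed intracellularly from a pBAD plasmid library in pooled LB shake-flask culture, induced with 0.3% L-arabinose, DNA abundance read by NGS, three biological replicates, DESeq2 with apeglm shrinkage.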

| Sequence | shrunken log2 fold change |
| --- | --- |
| RRIRVRPPRLPRPRPRPPWWPRP | 0.665 |
| RRIRRRPPRLPRPRPRPWVKPRP | 0.0557 |
| RRIRYRPPRLPRPRPRPVRAPRP | 0.774 |
| RRIRIRPPRLPRPRPRPKMDPRP | 0.0209 |
| RRIRQRPPRLPRPRPRPYNLPRP | -0.00751 |
| RRIRARPPRLPRPRPRPFQFPRP | -0.158 |
| RRIRPRPPRLPRPRPRPICDPRP | -0.0726 |
| RRIRQRPPRLPRPRPRPQIIPRP | -0.0763 |
| RRIRKRPPRLPRPRPRPMVHPRP | -0.079 |
| RRIRARPPRLPRPRPRPRWMPRP | 0.451 |
| RRIRLRPPRLPRPRPRPYYRPRP | -0.043 |
| RRIRNRPPRLPRPRPRPEICPRP | 0.0654 |
| RRIRNRPPRLPRPRPRPFDLPRP | -0.176 |
| RRIRTRPPRLPRPRPRPDKFPRP | 0.116 |
| RRIRRRPPRLPRPRPRPVDVPRP | 1.09 |
| RRIRGRPPRLPRPRPRPWPTPRP | 0.233 |
| RRIRDRPPRLPRPRPRPQHVPRP | 0.0427 |
| RRIRRRPPRLPRPRPRPQLWPRP | 0.146 |
| RRIRCRPPRLPRPRPRPADAPRP | 1.44 |
| RRIRMRPPRLPRPRPRPQYHPRP | -0.299 |
| RRIRNRPPRLPRPRPRPYGDPRP | -1.01 |
| RRIRTRPPRLPRPRPRPAMMPRP | -0.109 |

| Sequence | shrunken log2 fold change |
| --- | --- |
| RRIRHRPPRLPRPRPRPRMPPRP | 0.133 |
| RRIRDRPPRLPRPRPRPLVSPRP | 0.469 |
| RRIRARPPRLPRPRPRPELLPRP | 0.961 |
| RRIRARPPRLPRPRPRPCPAPRP | 0.209 |
| RRIRSRPPRLPRPRPRPKWPPRP | 0.146 |
| RRIRVRPPRLPRPRPRPDFDPRP | 0.0753 |
| RRIRSRPPRLPRPRPRPMFWPRP | 0.332 |
| RRIRLRPPRLPRPRPRPRHYPRP | -0.127 |
| RRIRMRPPRLPRPRPRPITLPRP | -0.521 |
| RRIRWRPPRLPRPRPRPHCNPRP | -0.465 |
| RRIRERPPRLPRPRPRPSMCPRP | -0.409 |
| RRIRERPPRLPRPRPRPVKKPRP | -0.179 |
| RRIRNRPPRLPRPRPRPNPTPRP | -0.124 |
| RRIRSRPPRLPRPRPRPLMWPRP | 0.169 |
| RRIRARPPRLPRPRPRPVIWPRP | 0.322 |
| RRIRCRPPRLPRPRPRPISKPRP | -0.37 |
| RRIRWRPPRLPRPRPRPYPWPRP | -0.156 |
| RRIRTRPPRLPRPRPRPCLCPRP | -0.29 |
| RRIRERPPRLPRPRPRPGTHPRP | -0.394 |
| RRIRDRPPRLPRPRPRPICPPRP | 0.106 |
| RRIRVRPPRLPRPRPRPTANPRP | 0.221 |
| RRIRNRPPRLPRPRPRPAEEPRP | 0.119 |

| Sequence | shrunken log2 fold change |
| --- | --- |
| RRIRRRPPRLPRPRPRPWAGPRP | 0.0855 |
| RRIRHRPPRLPRPRPRPYALPRP | -0.078 |
| RRIRERPPRLPRPRPRPSERPRP | -0.239 |
| RRIRFRPPRLPRPRPRPLITPRP | -0.503 |
| RRIRLRPPRLPRPRPRPWQFPRP | -0.196 |
| RRIRCRPPRLPRPRPRPPFWPRP | 0.649 |
| RRIRFRPPRLPRPRPRPDQFPRP | -0.221 |
| RRIRERPPRLPRPRPRPSAFPRP | -0.089 |
| RRIRCRPPRLPRPRPRPGFNPRP | -0.391 |
| RRIRSRPPRLPRPRPRPGPVPRP | 0.384 |
| RRIRHRPPRLPRPRPRPPARPRP | 1.66 |
| RRIRHRPPRLPRPRPRPSQVPRP | 0.176 |
| RRIRHRPPRLPRPRPRPVQVPRP | -0.162 |
| RRIRGRPPRLPRPRPRPVRQPRP | 0.883 |
| RRIRTRPPRLPRPRPRPQMYPRP | -0.148 |
| RRIRIRPPRLPRPRPRPRASPRP | -0.195 |
| RRIRRRPPRLPRPRPRPFFCPRP | 0.167 |
| RRIRTRPPRLPRPRPRPFYIPRP | -0.57 |
| RRIRERPPRLPRPRPRPYHEPRP | -3.17 |
| RRIRIRPPRLPRPRPRPQTCPRP | -0.141 |
| RRIRHRPPRLPRPRPRPGYRPRP | -0.00177 |
| RRIRNRPPRLPRPRPRPIGLPRP | -0.123 |

| Sequence | shrunken log2 fold change |
| --- | --- |
| RRIRERPPRLPRPRPRPFSCPRP | 0.0263 |
| RRIRGRPPRLPRPRPRPSEDPRP | 0.71 |
| RRIRLRPPRLPRPRPRPKFGPRP | 0.146 |
| RRIRKRPPRLPRPRPRPQWMPRP | -0.307 |
| RRIRKRPPRLPRPRPRPTYHPRP | -0.283 |
| RRIRARPPRLPRPRPRPNGDPRP | 0.147 |
| RRIRNRPPRLPRPRPRPYNRPRP | 0.00748 |
| RRIRFRPPRLPRPRPRPLVTPRP | -0.318 |
| RRIRLRPPRLPRPRPRPESLPRP | 0.157 |
| RRIRVRPPRLPRPRPRPMFYPRP | -0.725 |
| RRIRQRPPRLPRPRPRPCSFPRP | -0.0439 |
| RRIRGRPPRLPRPRPRPFWEPRP | 0.577 |
| RRIRTRPPRLPRPRPRPFDYPRP | -0.0205 |
| RRIRGRPPRLPRPRPRPWKNPRP | -0.138 |
| RRIRIRPPRLPRPRPRPPVYPRP | -0.288 |
| RRIRFRPPRLPRPRPRPIIIPRP | -0.579 |
| RRIRSRPPRLPRPRPRPPFRPRP | 0.193 |
| RRIRNRPPRLPRPRPRPAMYPRP | -0.112 |
| RRIRMRPPRLPRPRPRPNAMPRP | 0.16 |
| RRIRQRPPRLPRPRPRPDHWPRP | -0.368 |
| RRIRNRPPRLPRPRPRPIVPPRP | -0.382 |
| RRIRDRPPRLPRPRPRPKHKPRP | -0.173 |

| Sequence | shrunken log2 fold change |
| --- | --- |
| RRIRMRPPRLPRPRPRPHTQPRP | 0.614 |
| RRIRARPPRLPRPRPRPEMPPRP | 0.981 |
| RRIRKRPPRLPRPRPRPISNPRP | 0.153 |
| RRIRMRPPRLPRPRPRPPRPPRP | 1.75 |
| RRIRQRPPRLPRPRPRPHQAPRP | -0.241 |
| RRIRYRPPRLPRPRPRPWPWPRP | 0.0314 |
| RRIRCRPPRLPRPRPRPPMEPRP | 0.245 |
| RRIRNRPPRLPRPRPRPSTCPRP | -0.186 |
| RRIRRRPPRLPRPRPRPDWMPRP | 0.0919 |
| RRIRVRPPRLPRPRPRPQVIPRP | -0.00246 |
| RRIRGRPPRLPRPRPRPKMTPRP | 1.83 |
| RRIRVRPPRLPRPRPRPACSPRP | -0.0142 |
| RRIRKRPPRLPRPRPRPKDHPRP | 0.308 |
| RRIRGRPPRLPRPRPRPEGSPRP | 1.28 |
| RRIRDRPPRLPRPRPRPSGKPRP | -0.24 |
| RRIRLRPPRLPRPRPRPCEGPRP | -0.199 |
| RRIRSRPPRLPRPRPRPSRPPRP | 1.28 |
| RRIRARPPRLPRPRPRPTFGPRP | 0.416 |
| RRIRVRPPRLPRPRPRPLFTPRP | -0.448 |
| RRIRDRPPRLPRPRPRPYIIPRP | -0.758 |
| RRIRHRPPRLPRPRPRPGHGPRP | 0.0264 |
